In patent US20070027089A1 one finds reduction of Aβ released from HEK293-APP cells (sandwich ELISA) data, which are given here for 1 molecule.

This assay deals with amyloid precursor protein APP695 in HEK 293-APP cells (human), P05067. Put plainly: cell-based or functional assay.

Where no end group is shown, it is not given here. [ ]: non-standard residue; d: D form. Ahx = NCCCCCC(=O)O

Sequence of amyloid precursor protein APP695 in HEK 293-APP cells (human), P05067 (P05067 18-770): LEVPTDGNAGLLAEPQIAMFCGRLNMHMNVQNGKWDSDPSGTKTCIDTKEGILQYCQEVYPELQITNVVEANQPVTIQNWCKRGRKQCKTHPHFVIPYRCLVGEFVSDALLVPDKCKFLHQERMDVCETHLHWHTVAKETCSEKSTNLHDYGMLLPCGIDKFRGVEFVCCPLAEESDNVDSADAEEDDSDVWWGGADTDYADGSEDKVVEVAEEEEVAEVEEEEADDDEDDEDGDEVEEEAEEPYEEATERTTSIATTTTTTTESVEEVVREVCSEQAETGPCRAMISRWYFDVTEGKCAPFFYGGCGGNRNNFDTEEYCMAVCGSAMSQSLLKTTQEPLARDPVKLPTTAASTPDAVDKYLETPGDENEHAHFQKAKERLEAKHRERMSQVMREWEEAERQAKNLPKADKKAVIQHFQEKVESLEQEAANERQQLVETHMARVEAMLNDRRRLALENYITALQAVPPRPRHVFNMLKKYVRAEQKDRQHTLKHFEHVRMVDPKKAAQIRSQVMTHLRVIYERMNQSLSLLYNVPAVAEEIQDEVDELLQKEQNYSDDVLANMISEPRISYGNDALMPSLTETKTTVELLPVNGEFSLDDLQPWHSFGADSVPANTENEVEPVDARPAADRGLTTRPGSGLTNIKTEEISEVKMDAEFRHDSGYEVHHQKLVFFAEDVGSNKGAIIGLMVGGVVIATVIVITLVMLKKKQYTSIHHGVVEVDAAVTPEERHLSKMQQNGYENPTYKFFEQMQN

B1: 6-aminohexanoic acid-c-Sub M ΔN3C1 (NH2-(CH2)5-CO-Cys-Ile-Gln-Ile-His-Phe-NH2) (peptide)
peptide: [Ahx]CIQIHF-NH2
modifications: N-terminus assumed
SMILES: CC[C@H](C)[C@H](NC(=O)[C@H](CCC(N)=O)NC(=O)[C@@H](NC(=O)[C@H](CS)NC(=O)CCCCCN)[C@@H](C)CC)C(=O)N[C@@H](Cc1c[nH]cn1)C(=O)N[C@@H](Cc1ccccc1)C(N)=O
Take B1: the reduction of Aβ released from HEK293-APP cells (sandwich ELISA) at 6.25 µM peptide stood at 70%.
